# Data from patent publication EP4696329A1 (BioRay Pharmaceutical Co., Ltd., dated 2024).
# Where two headings read alike, the source gives them in different places.
# B1: YR-4 (antibody, human IgG1, kappa, V domains shown)
# VH: QVQLQESGPGLVKPSETLSLTCTVSGFSLTRYGVHWIRQPPGKGLEWIGVIWAGGFTNYNSSLKSRVTISKDNSKNQVSLKLSSVTAADTAVYYCARRGDGYSMQYWGQGTLVTVSS
# VL: EIVLTQSPATLSLSPGERATLSCSASSQVSYIHWYQQKPGQAPRPWIYEISKLASGIPARFSGSGSGTDYTLTISSLEPEDFAVYYCQQWNYPLITFGQGTKLEIKR
# B2: YR-8-NA (antibody, human IgG1, kappa, V domains shown)
# VH: QVQLQESGPGLVKPSETLSLTCTVSGFSLTRYGVHWIRQPPGKGLEWLGVIWAGGFTNYNADLKSRLTISKDNSKNQVSLKLSSVTAADTAVYYCARRGDSYSMKYWGQGTLVTVSS
# VL: EIVLTQSPATLSLSPGERATLSCSASSQVSYIHWYQQKPGQAPRPWIYETSKLASGIPARFSGSGSGTDYTLTISSLEPEDFAVYYCQQWNYPLITFGQGTKLEIKR
# notes: YR-8 with S61A (Kabat) in the heavy chain
# B3: YR-8-NI (antibody, human IgG1, kappa, V domains shown)
# VH: QVQLQESGPGLVKPSETLSLTCTVSGFSLTRYGVHWIRQPPGKGLEWLGVIWAGGFTNYNIDLKSRLTISKDNSKNQVSLKLSSVTAADTAVYYCARRGDSYSMKYWGQGTLVTVSS
# VL: EIVLTQSPATLSLSPGERATLSCSASSQVSYIHWYQQKPGQAPRPWIYETSKLASGIPARFSGSGSGTDYTLTISSLEPEDFAVYYCQQWNYPLITFGQGTKLEIKR
# notes: YR-8 with S61I (Kabat) in the heavy chain
# B4: YR-8-NL (antibody, human IgG1, kappa, V domains shown)
# VH: QVQLQESGPGLVKPSETLSLTCTVSGFSLTRYGVHWIRQPPGKGLEWLGVIWAGGFTNYNLDLKSRLTISKDNSKNQVSLKLSSVTAADTAVYYCARRGDSYSMKYWGQGTLVTVSS
# VL: EIVLTQSPATLSLSPGERATLSCSASSQVSYIHWYQQKPGQAPRPWIYETSKLASGIPARFSGSGSGTDYTLTISSLEPEDFAVYYCQQWNYPLITFGQGTKLEIKR
# notes: YR-8 with S61L (Kabat) in the heavy chain
# B5: YR-8-NT (antibody, human IgG1, kappa, V domains shown)
# VH: QVQLQESGPGLVKPSETLSLTCTVSGFSLTRYGVHWIRQPPGKGLEWLGVIWAGGFTNYNTDLKSRLTISKDNSKNQVSLKLSSVTAADTAVYYCARRGDSYSMKYWGQGTLVTVSS
# VL: EIVLTQSPATLSLSPGERATLSCSASSQVSYIHWYQQKPGQAPRPWIYETSKLASGIPARFSGSGSGTDYTLTISSLEPEDFAVYYCQQWNYPLITFGQGTKLEIKR
# notes: YR-8 with S61T (Kabat) in the heavy chain
# B6: YR-8-NV (antibody, human IgG1, kappa, V domains shown)
# VH: QVQLQESGPGLVKPSETLSLTCTVSGFSLTRYGVHWIRQPPGKGLEWLGVIWAGGFTNYNVDLKSRLTISKDNSKNQVSLKLSSVTAADTAVYYCARRGDSYSMKYWGQGTLVTVSS
# VL: EIVLTQSPATLSLSPGERATLSCSASSQVSYIHWYQQKPGQAPRPWIYETSKLASGIPARFSGSGSGTDYTLTISSLEPEDFAVYYCQQWNYPLITFGQGTKLEIKR
# notes: YR-8 with S61V (Kabat) in the heavy chain
# B7: YR-10 (antibody, human IgG1, kappa, V domains shown)
# VH: QVQLQESGPGLVKPSETLSLTCTVSGFSLTRYGVHWIRQPPGKGLEWIGVIWAGGFTNYNSTLKSRVTISKDNSKNQVSLKLSSVTAADTAVYYCARRGNQYSMKYWGQGTLVTVSS
# VL: EIVLTQSPATLSLSPGERATLSCSASSQVSYIHWYQQKPGQAPRPWIYETSKLASGIPARFSGSGSGTDYTLTISSLEPEDFAVYYCQQWNYPLISFGQGTKLEIKR
# B8: YR-21 (antibody, human IgG1, kappa, V domains shown)
# VH: QVQLQESGPGLVKPSETLSLTCTVSGFSLTRYGVHWIRQPPGKGLEWLGVIWAGGFTNYNSGLKSRLTISKDNSKNQVSLKLSSVTAADTAVYYCARRGDQYSMGYWGQGTLVTVSS
# VL: EIVLTQSPATLSLSPGERATLSCSASSQVSYIHWYQQKPGQAPRPWIYETSKLASGIPARFSGSGSGTDYTLTISSLEPEDFAVYYCQQWNYPLITFGQGTKLEIKR
# B9: AM3-ZH7 (antibody, human IgG1, kappa, V domains shown)
# VH: EVQLVESGGGLVQPGGSLRLSCAASGFTFSSYAMSWVRQAPGKGLEWVSSISTGASAYFPDSVKGRFTISRDNAKNSLYLQMNSLRAEDTAVYYCARITTSTWYMDVWGQGTTVTVSS
# VL: DIQMTQSPSAMSASVGDRVTITCKASQDIYSYLSWFQQKPGKVPKTLIYRANRLVRGVPSRFSGSGSGQEYTLTISSLQPEDMATYYCLQYDEFPYTFGQGTKLEIKR
# B10: AM3-ZH1 (antibody, human IgG1, kappa, V domains shown)
# VH: EVQLVESGGGLVQPGGSLRLSCAASGFTFSSYPMSWVRQAPGKGLEWVSSISTGASAYFPDSVKGRFTISRDNAKNSLYLQMNSLRAEDTAVYYCARYTTSTWYFDVWGQGTTVTVSS
# VL: DIQMTQSPSAMSASVGDRVTITCKASQDIYSYLSWFQQKPGKVPKTLIYRANRLVRGVPSRFSGSGSGQEYTLTISSLQPEDMATYYCLQYDEFPYTFGQGTKLEIKR
# B11: AM3-ZH4 (antibody, human IgG1, kappa, V domains shown)
# VH: EVQLVESGGGLVQPGGSLRLSCAASGFTFSSYAMSWVRQAPGKGLEWVSSISTGASAYFPDSVKGRFTISRDNAKNSLYLQMNSLRAEDTAVYYCARYTTSTWYHDVWGQGTTVTVSS
# VL: DIQMTQSPSAMSASVGDRVTITCKASQDIYSYLSWFQQKPGKVPKTLIYRANRLVRGVPSRFSGSGSGQEYTLTISSLQPEDMATYYCLQYDEFPYTFGQGTKLEIKR
# B12: AM3-ZH5 (antibody, human IgG1, kappa, V domains shown)
# VH: EVQLVESGGGLVQPGGSLRLSCAASGFTFSSYAMSWVRQAPGKGLEWVSSISTGASAYFPDSVKGRFTISRDNAKNSLYLQMNSLRAEDTAVYYCARITTSTWYMDVWGQGTTVTVSS
# VL: DIQMTQSPSAMSASVGDRVTITCKASQDIFSYLSWFQQKPGKVPKTLIYRANRLVSGVPSRFSGSGSGQEYTLTISSLQPEDMATYYCLQYDEFPYTFGQGTKLEIKR
# B13: AM3-ZH6 (antibody, human IgG1, kappa, V domains shown)
# VH: EVQLVESGGGLVQPGGSLRLSCAASGFTFSSYAMSWVRQAPGKGLEWVSSISTGASAYFPDSVKGRFTISRDNAKNSLYLQMNSLRAEDTAVYYCARITTSTWYMDVWGQGTTVTVSS
# VL: DIQMTQSPSAMSASVGDRVTITCKASQDIYSYLSWFQQKPGKVPKTLIYRANRLVGGVPSRFSGSGSGQEYTLTISSLQPEDMATYYCLQYDEFPYTFGQGTKLEIKR
# B14: H10-hVH4-hVL4 (antibody, human IgG1, kappa, V domains shown)
# VH: EVQLVESGGGLVQPGGSLRLSCAASGFTFSSYAMSWVRQAPGKGLEWVSSISTGASAYFPDSVKGRFTISRDNAKNSLYLQMNSLRAEDTAVYYCARITTSTWYFDVWGQGTTVTVSS
# VL: DIQMTQSPSAMSASVGDRVTITCKASQDINSYLSWFQQKPGKVPKTLIYRANRLVDGVPSRFSGSGSGQEYTLTISSLQPEDMATYYCLQYDEFPYTFGQGTKLEIKR
# notes: also called H10-VH4VL4
# B15: KIH YR8/ZH3, an ROR1-targeting biepitopic antibody (bispecific antibody, human IgG1, kappa)
# heavy 1: not shown
# light 1: EIVLTQSPATLSLSPGERATLSCSASSQVSYIHWYQQKPGQAPRPWIYETSKLASGIPARFSGSGSGTDYTLTISSLEPEDFAVYYCQQWNYPLITFGQGTKLEIKRTVAAPSVFIFPPSDEQLKSGTASVVCLLNNFYPREAKVQWKVDNALQSGNSQESVTEQDSKDSTYSLSSTLTLSKADYEKHKVYACEVTHQGLSSPVTKSFNRGEC
# heavy 2: not shown
# light 2: DIQMTQSPSAMSASVGDRVTITCKASQDIYSYLSWFQQKPGKVPKTLIYRANRLVRGVPSRFSGSGSGQEYTLTISSLQPEDMATYYCLQYDEFPYTFGQGTKLEIKRTVAAPSVFIFPPSDEQLKSGTASVVCLLNNFYPREAKVQWKVDNALQSGNSQESVTEQDSKDSTYSLSSTLTLSKADYEKHKVYACEVTHQGLSSPVTKSFNRGEC
# notes: chain 1: YR-8-ES arm with Fc knob (T366W); chain 3: AM3-ZH3 arm with Fc hole (T366S, L368A, Y407V); made by reduction and mixing of YR-8-ES variant 1 and AM3-ZH3 variant 1
# Tests used:
# [1] = molecular target: T1, human ROR2 protein (hROR2, Kactus Biosystems, Cat. No. ROR-HM402) (human, UniProt Q01974 34-403, limits assumed); test: ELISA, plate coated with hROR2
# T1 sequence (Q01974 34-403 limits assumed): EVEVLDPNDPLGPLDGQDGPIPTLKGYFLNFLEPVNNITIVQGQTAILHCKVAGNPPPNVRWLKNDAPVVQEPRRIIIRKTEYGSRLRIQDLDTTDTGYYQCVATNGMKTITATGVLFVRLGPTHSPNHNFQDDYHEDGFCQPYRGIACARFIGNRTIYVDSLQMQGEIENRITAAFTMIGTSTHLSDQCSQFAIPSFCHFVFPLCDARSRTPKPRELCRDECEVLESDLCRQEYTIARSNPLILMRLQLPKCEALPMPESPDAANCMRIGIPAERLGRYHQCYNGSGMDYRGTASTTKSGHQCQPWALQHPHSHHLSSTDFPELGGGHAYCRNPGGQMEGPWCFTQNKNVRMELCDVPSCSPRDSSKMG
# [2] = molecular target: T2, human ROR1 protein (recombinant ROR1 antigen, Kactus Biosystems) (human, UniProt Q01973 30-406, limits assumed); test: BLI (Octet R8), antibody captured on AHC sensor, ROR1 antigen as analyte
# T2 sequence (Q01973 30-406 limits assumed): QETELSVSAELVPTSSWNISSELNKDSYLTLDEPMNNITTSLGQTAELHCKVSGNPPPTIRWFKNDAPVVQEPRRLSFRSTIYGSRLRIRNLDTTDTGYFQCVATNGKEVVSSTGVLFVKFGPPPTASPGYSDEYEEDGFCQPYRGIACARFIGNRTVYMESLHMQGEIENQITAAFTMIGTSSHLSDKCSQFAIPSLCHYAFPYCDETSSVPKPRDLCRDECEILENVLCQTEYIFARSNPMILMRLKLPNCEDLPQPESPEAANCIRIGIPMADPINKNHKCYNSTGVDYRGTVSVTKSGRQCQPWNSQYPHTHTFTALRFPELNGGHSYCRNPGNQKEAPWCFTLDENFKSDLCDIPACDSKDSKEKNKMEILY
# [3] = molecular target: T1, human ROR2 protein (hROR2, Kactus …); test: ELISA, plate coated with hROR2; remark: listed apart in the source
# [4] = molecular target: T2, human ROR1 protein (recombinant ROR1 …); test: BLI (Octet R8), antibody captured on AHC sensor, ROR1 antigen as analyte; remark: listed apart in the source
# [5] = molecular target: T3, human ROR1 expressed on cells (MDA-MB-231, Jeko-1, PA-1, HCC1187) (human, UniProt Q01973 30-937); test: flow cytometry on Jeko-1 cells
# T3 construct: also called hROR1
# T3 sequence (Q01973 30-937 limits assumed): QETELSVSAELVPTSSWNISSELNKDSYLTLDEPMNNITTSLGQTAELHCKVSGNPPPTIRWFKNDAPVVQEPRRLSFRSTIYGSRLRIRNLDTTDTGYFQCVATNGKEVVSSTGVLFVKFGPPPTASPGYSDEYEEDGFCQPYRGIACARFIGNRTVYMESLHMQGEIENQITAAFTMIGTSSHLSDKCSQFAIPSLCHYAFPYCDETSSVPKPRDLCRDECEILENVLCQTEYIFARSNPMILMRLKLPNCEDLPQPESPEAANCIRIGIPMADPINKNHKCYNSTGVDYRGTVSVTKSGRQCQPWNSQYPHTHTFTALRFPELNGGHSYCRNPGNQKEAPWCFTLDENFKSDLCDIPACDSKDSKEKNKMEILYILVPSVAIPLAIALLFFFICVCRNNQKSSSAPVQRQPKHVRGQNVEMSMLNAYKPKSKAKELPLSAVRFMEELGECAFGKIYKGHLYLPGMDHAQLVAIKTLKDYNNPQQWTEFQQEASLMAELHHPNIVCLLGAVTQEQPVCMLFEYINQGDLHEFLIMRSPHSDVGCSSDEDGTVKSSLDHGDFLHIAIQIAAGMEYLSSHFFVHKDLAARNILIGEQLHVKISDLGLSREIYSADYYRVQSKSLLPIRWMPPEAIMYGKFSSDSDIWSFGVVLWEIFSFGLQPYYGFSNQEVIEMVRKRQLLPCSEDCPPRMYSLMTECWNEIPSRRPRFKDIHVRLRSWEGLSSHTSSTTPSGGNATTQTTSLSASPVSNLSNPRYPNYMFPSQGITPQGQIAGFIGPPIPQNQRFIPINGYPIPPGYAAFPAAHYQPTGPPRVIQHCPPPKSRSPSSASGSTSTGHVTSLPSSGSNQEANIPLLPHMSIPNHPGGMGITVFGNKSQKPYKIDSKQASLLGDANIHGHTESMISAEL
# [6] = molecular target: T3, human ROR1 expressed on cells …; test: flow cytometry on MDA-MB-231 cells
# [7] = molecular target: T2, human ROR1 protein (recombinant ROR1 …); test: binding to ROR1 (column 'Binding to ROR1'; method not described)
# [8] = molecular target: T1, human ROR2 protein (hROR2, Kactus …); test: ELISA, plate coated with hROR2; remark: listed apart in the source
# [9] = molecular target: T2, human ROR1 protein (recombinant ROR1 …); test: BLI (Octet R8), antibody captured on AHC sensor, ROR1 antigen as analyte; remark: listed apart in the source
# [10] = molecular target: T3, human ROR1 expressed on cells …; test: flow cytometry on MDA-MB-231 cells; remark: listed apart in the source
# [11] = molecular target: T3, human ROR1 expressed on cells …; test: flow cytometry on PA-1 cells
# [12] = molecular target: T3, human ROR1 expressed on cells …; test: flow cytometry on Jeko-1 cells; remark: listed apart in the source
Binder,binding result [3],Kd [4],EC50 [7],binding result [8],Kd [9],EC50 [10],other results
B1,–,–,–,–,–,–,binding result [1]: binds; Kd [2]: 10 nM
B2,binds,14 nM,–,–,–,–,–
B3,binds,14 nM,–,–,–,–,–
B4,binds,16 nM,–,–,–,–,–
B5,binds,16 nM,–,–,–,–,–
B6,binds,16 nM,–,–,–,–,–
B7,–,–,–,–,–,–,EC50 [5]: 0.01 µg/mL; binding result [1]: binds; Kd [2]: 11.3 nM; EC50 [6]: 0.06 µg/mL
B8,–,–,–,–,–,–,binding result [1]: binds; Kd [2]: 6.21 nM
B9,–,–,0.0115 µg/mL,no binding (tested: starting from 333.33 nM),8.5 nM,0.0101 µg/mL,–
B10,–,–,0.0127 µg/mL,binds,7.9 nM,0.0169 µg/mL,–
B11,–,–,0.0161 µg/mL,no binding (tested: starting from 333.33 nM),27 nM,0.0163 µg/mL,–
B12,–,–,0.0124 µg/mL,no binding (tested: starting from 333.33 nM),10 nM,0.0148 µg/mL,–
B13,–,–,0.012 µg/mL,no binding (tested: starting from 333.33 nM),11 nM,0.013 µg/mL,–
B14,–,–,0.0144 µg/mL,no binding (tested: starting from 333.33 nM),47 nM,0.0304 µg/mL,–
B15,–,–,–,–,–,–,EC50 [11]: 0.41 nM; MFI fold [11]: 7 fold; EC50 [12]: 0.19 nM; MFI fold [12]: 8.2 fold
